Measurements reported in paper doi:10.1101/2024.04.02.587845.

Tests used:
[1] = target: GST-YFP-6His-PANT^WT (PANT domain of Arabidopsis SRFR1) (Arabidopsis); experiment: MST
[2] = target: GST-YFP-6His-PANT^R20A (Arabidopsis); experiment: MST

synthetic P1 peptide (P1 segment of IDR1 of SRFR1)
Kd [1]: 395 µM
Kd [2]: 956 µM
